Assay results: US20240034793A1 (Bristol-Myers Squibb, published 2024)

B1: anti-PD-L1 HuMAb 3G10 (antibody, V domains shown)
VH: QVQLVQSGAEVKKPGASVKVSCKASGYTFTDYGFSWVRQAPGQGLEWMGWITAYNGNTNYAQKLQGRVTMTTDTSTSTVYMELRSLRSDDTAVYYCARDYFYGMDVWGQGTTVTVSS
VL: EIVLTQSPATLSLSPGERATLSCRASQSVSSYLVWYQQKPGQAPRLLIYDASNRATGIPARFSGSGSGTDFTLTISSLEPEDFAVYYCQQRSNWPRTFGQGTKVEIK
notes: Human mAb; used unconjugated and FITC-conjugated

How the values were obtained:
[1] = target: human PD-L1 (hPD-L1), Programmed Death Ligand-1, cell surface expressed (human) (UniProt Q9NZQ7); experiment: IHC histoscore (0-300), FFPE Mel sample T030668
[2] = target: human PD-L1 (hPD-L1), Programmed Death Ligand-1, cell surface expressed (human) (UniProt Q9NZQ7); experiment: IHC histoscore (0-300), FFPE Mel sample T980744
[3] = target: human PD-L1 (hPD-L1), Programmed Death Ligand-1, cell surface expressed (human) (UniProt Q9NZQ7); experiment: IHC histoscore (0-300), FFPE Mel sample 1168657B
[4] = target: human PD-L1 (hPD-L1), Programmed Death Ligand-1, cell surface expressed (human) (UniProt Q9NZQ7); experiment: IHC histoscore (0-300), FFPE RCC sample 1164619B
[5] = target: human PD-L1 (hPD-L1), Programmed Death Ligand-1, cell surface expressed (human) (UniProt Q9NZQ7); experiment: IHC histoscore (0-300), FFPE RCC sample 1167809B
[6] = target: human PD-L1 (hPD-L1), Programmed Death Ligand-1, cell surface expressed (human) (UniProt Q9NZQ7); experiment: IHC histoscore (0-300), FFPE NSCLC sample 1080790
[7] = target: human PD-L1 (hPD-L1), Programmed Death Ligand-1, cell surface expressed (human) (UniProt Q9NZQ7); experiment: IHC histoscore (0-300), FFPE NSCLC sample 1080754B
[8] = target: human PD-L1 (hPD-L1), Programmed Death Ligand-1, cell surface expressed (human) (UniProt Q9NZQ7); experiment: IHC histoscore (0-300), FFPE NSCLC sample 1080766B
[9] = target: human PD-L1 (hPD-L1), Programmed Death Ligand-1, cell surface expressed (human) (UniProt Q9NZQ7); experiment: IHC histoscore (0-300), FFPE NSCLC sample 1080993B
[10] = target: T1, human PD-L1 (hPD-L1), Programmed Death Ligand-1, cell surface expressed (human, UniProt Q9NZQ7 19-290); experiment: competition flow cytometry on ES-2 cells: unlabelled mAb titrated, then biotin-12A4 at 0.4 ug/ml, streptavidin-PE
T1 construct: whole, on cells; In the IHC assays the cells and tissues were formalin-fixed and paraffin-embedded (FFPE); also called membranous PD-L1
Protocol: Anti-PD-L1 HuMAbs 5F8, 12B7, 3G10, 1B12, 13G4, 10H10, 10A5 and 12A4, and a human IgG1 (huIgG1) isotype control Ab were serially diluted from 10 μg/ml and incubated with hPD-L1-expressing ES-2 ovarian carcinoma cells for 20 minutes at 4° C. Without washing, biotinylated-12A4 Ab was added to a final concentration of 0.4 μg/ml for an additional 20 minutes at 4° C.

Chain of human PD-L1 (hPD-L1), Programmed Death Ligand-1, cell surface expressed (human) (Q9NZQ7 19-290): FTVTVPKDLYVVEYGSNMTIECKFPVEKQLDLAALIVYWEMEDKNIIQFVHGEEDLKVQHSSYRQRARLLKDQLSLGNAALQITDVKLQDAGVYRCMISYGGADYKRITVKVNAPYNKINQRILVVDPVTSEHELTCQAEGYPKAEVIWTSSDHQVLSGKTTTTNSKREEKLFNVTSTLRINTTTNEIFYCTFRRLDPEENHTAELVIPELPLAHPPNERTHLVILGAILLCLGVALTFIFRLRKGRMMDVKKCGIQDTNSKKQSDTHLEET
T1 sequence (Q9NZQ7 19-290): as above

Row | Molecule | Histoscore Average [1] | Histoscore Average [2] | Histoscore Average [3] | Histoscore Average [4] | Histoscore Average [5] | Histoscore Average [6] | Histoscore Average [7] | Histoscore Average [8] | Histoscore Average [9] | IC50 (read off the curve) [10]
1 | murine anti-human PD-L1 mAb 5H1 (Dong et al., 2002) (antibody) | 98 | 98 | 0 | 4 | 108 | 40 | 245 | 103 | 12 | 
2 | B1 |  |  |  |  |  |  |  |  |  | ~1 nM
